The source of these data is US12528864.

Positions count from the first letter of the chain named.

The labels stand for the following.
B1: 42Y073-1A01-100 (antibody, V domains shown)
VH: QVQLVQSGAEVKKPGASVKVSCKASGYTFTTYRMHWVRQAPGQGLEWMGIINPSGGLTQYAQKFQGRVTMTRDTSTSTVYMELSSLRSEDTAVYYCARETAYYTTKGNWFDPWGQGTLVTVSS
VL: DIQMTQSPSSLSASVGDRVTITCRASQSISSYLNWYQQKPGKAPKLLIYAASSLQSGVPSRFSGSGSGTDFTLTISSLQPEDFATYYCQQSLYPPRTFGGGTKVEIK
B2: 42Y073-86F04-3 (antibody, V domains shown)
VH: QVQLVQSGAEVKKPGSSVKVSCKASGGTFSYNAISWVRQAPGQGLEWMGGIIPIMGTARYAQKFQGRVTITADESTSTAYMELSSLRSEDTAVYYCARLLGESGMDVWGQGTTVTVSS
VL: B1 VL with S91P, L92Y, Y93F, P94S, R96P
B3: 42Y073-1A01-85 (antibody, V domains shown)
VH: B1 VH with T31S, R33P, L57F, Q59S, S123A
VL: B1 VL
B4: 42Y073-1A01-103 (antibody, V domains shown)
VH: B1 VH with T31A, R33Q, S54A, L57W, Q59S
VL: B1 VL
B5: 42Y073-86F04-4 (antibody, V domains shown)
VH: B2 VH with S30E, Y31S, N32E, M55F, T57R
VL: B1 VL with S91P, L92Y, Y93F, P94S, R96P
B6: 42Y073-86F04-5 (antibody, V domains shown)
VH: B2 VH with Y31S, N32H, M55F, T57R, A58G, R59K
VL: B1 VL with S91P, L92Y, Y93F, P94S, R96P
B7: 42Y073-1A01-191 (antibody, V domains shown)
VH: B1 VH with T31K, S54Q, L57S, Q59S, S123A
VL: B1 VL
B8: 42Y073-86F04-18 (antibody, V domains shown)
VH: B2 VH with Y31S, N32R
VL: B1 VL with S91P, L92Y, Y93F, P94S, R96P
B9: 42Y073-86F04-6 (antibody, V domains shown)
VH: B2 VH with Y31G, N32H, M55F, T57R
VL: B1 VL with S91P, L92Y, Y93F, P94S, R96P
B10: 42Y073-86F08-3 (antibody, V domains shown)
VH: QVQLVQSGAEVKKPGSSVKVSCKASGGTFVNYAISWVRQAPGQGLEWMGGIIPALGTANYAQKFQGRVTITADESTSTAYMELSSLRSEDTAVYYCARGAGYYGDKDPMDVWGQGTTVTVSS
VL: DIQLTQSPSSLSASVGDRVTITCRASQSISSYLNWYQQKPGKAPKLLIYAASSLQSGVPSRFSGSGSGTDFTLTISSLQPEDFATYYCQQVLHTITFGGGTKVEIK
B11: 42Y073-86F08-4 (antibody, V domains shown)
VH: B10 VH with V30S, N31E, S35H, G50N, A54I, L55F, N59G
VL: B10 VL
B12: 42Y073-86F08-47 (antibody, V domains shown)
VH: B10 VH with V30S, N31Q, S35H, G50V, A54I, L55F, T57K
VL: B10 VL
B13: 42Y073-86F08-22 (antibody, V domains shown)
VH: B10 VH with S16A, G27Y, V30D, N31S, I34M, S35H, A54I, L55F, N59W
VL: B10 VL
B14: 42Y073-86F08-17 (antibody, V domains shown)
VH: B10 VH with V30R, N31E, A54V, L55F
VL: B10 VL
B15: 42Y073-86F08-8 (antibody, V domains shown)
VH: B10 VH with V30W, N31L, A54Q
VL: B10 VL

In this assay the target is human CD96, native, on primary human T cells (human) (UniProt P40200). The assay is described as follows: flow cytometry on primary human CD3+ T cells. (In general: In flow cytometry, cells or beads pass a laser one at a time.)
B1 had a half-maximal effective concentration (EC50) of 0.01 nM.
For B2, the concentration for a half-maximal effect (EC50) turned out to be 0.09 nM.
The figure for B3 is 0.32 nM; for B4 it is 0.01 nM.
Under B5 stands 0.05 nM; under B6, 0.05 nM.
For B7, the EC50 is 0.38 nM.
With B8, the EC50 amounted to 0.01 nM.
The figure for B9 is 0.01 nM; for B10 it is 0.05 nM; for B11 it is 0.01 nM.
The molecule B12 showed an EC50 of 0.03 nM.
For B13, the EC50 stood at 0.18 nM.
Under B14 stands 0.01 nM; under B15, 0.04 nM.

What is called EC50 is the concentration at which the effect is half-maximal. A low value points to a more potent agent.
